These results are taken from paper PMC10403523, “The AT-hook is an evolutionarily conserved auto-regulatory domain of SWI/SNF required for cell lineage priming” (Nature Communications, 2023).

The target in this assay is T1, histone H4 of Xenopus laevis, in the 29N59 nucleosome (Xenopus laevis, UniProt P62799 1-103).
T1 construct: histone H4, Xenopus laevis; Stood within the nucleosome in the cross-linking
In words: cross-linking; BS3 cross-linking with mass spectrometry (CX-MS): 35 nM FLAG tagged SWI/SNF, 35 nM 29-N-59 nucleosomes, 200 nM Gal4-VP16, 115 μM BS3, room temperature, 2 h. Conditions: both partners purified.

B1: Snf2, catalytic subunit of yeast SWI/SNF, with a C-terminal double FLAG epitope (enzyme)
chain: MNIPQRQFSNEEVNRCYLRWQHLRNEHGMNAPSVPEFIYLTKVLQFAAKQRQELQMQRQQQGISGSQQNIVPNSSDQAELPNNASSHISASASPHLAPNMQLNGNETFSTSAHQSPIMQTQMPLNSNGGNNMLPQRQSSVGSLNATNFSPTPANNGENAAEKPDNSNHNNLNLNNSELQPQNRSLQEHNIQDSNVMPGSQINSPMPQQAQMQQAQFQAQQAQQAQQAQQAQQAQARLQQGRRLPMTMFTAEQSELLKAQITSLKCLVNRKPIPFEFQAVIQKSINHPPDFKRMLLSLSEFARRRQPTDQNNQSNLNGGNNTQQPGTNSHYNNTNTDNVSGLTRNAPLDSKDENFASVSPAGPSSVHNAKNGTLDKNSQTVSGTPITQTESKKEENETISNVAKTAPNSNKTHTEQNNPPKPQKPVPLNVLQDQYKEGIKVVDIDDPDMMVDSFTMPNISHSNIDYQTLLANSDHAKFTIEPGVLPVGIDTHTATDIYQTLIALNLDTTVNDCLDKLLNDECTESTRENALYDYYALQLLPLQKAVRGHVLQFEWHQNSLLTNTHPNFLSKIRNINVQDALLTNQLYKNHELLKLERKKTEAVARLKSMNKSAINQYNRRQDKKNKRLKFGHRLIATHTNLERDEQKRAEKKAKERLQALKANDEEAYIKLLDQTKDTRITHLLRQTNAFLDSLTRAVKDQQKYTKEMIDSHIKEASEEVDDLSMVPKMKDEEYDDDDDNSNVDYYNVAHRIKEDIKKQPSILVGGTLKDYQIKGLQWMVSLFNNHLNGILADEMGLGKTIQTISLLTYLYEMKNIRGPYLVIVPLSTLSNWSSEFAKWAPTLRTISFKGSPNERKAKQAKIRAGEFDVVLTTFEYIIKERALLSKVKWVHMIIDEGHRMKNAQSKLSLTLNTHYHADYRLILTGTPLQNNLPELWALLNFVLPKIFNSVKSFDEWFNTPFANTGGQDKIELSEEETLLVIRRLHKVLRPFLLRRLKKDVEKELPDKVEKVVKCKMSALQQIMYQQMLKYRRLFIGDQNNKKMVGLRGFNNQIMQLKKICNHPFVFEEVEDQINPTRETNDDIWRVAGKFELLDRILPKLKATGHRVLIFFQMTQIMDIMEDFLRYINIKYLRLDGHTKSDERSELLRLFNAPDSEYLCFILSTRAGGLGLNLQTADTVIIFDTDWNPHQDLQAQDRAHRIGQKNEVRILRLITTNSVEEVILERAYKKLDIDGKVIQAGKFDNKSTSEEQEALLRSLLDAEEERRKKRESGVEEEEELKDSEINEILARNDEEMAVLTRMDEDRSKKEEELGVKSRLLEKSELPDIYSRDIGAELKREESESAAVYNGRGARERKTATYNDNMSEEQWLRQFEVSDDEKNDKQARKQRTKKEDKSEAIDGNGEIKGENIDADNDGPRINNISAEDRADTDLAMNDDDFLSKKRKAGRPRGRPKKVKLEGSENSEPPALESSPVTGDNSPSEDFMDIPKPRTAGKTSVKSARTSTRGRGRGRGRGRGRGRGRGRPPKARNGLDYVRTPAAATSPIDIREKVAKQALDLYHFALNYENEAGRKLSDIFLSKPSKALYPDYYMIIKYPVAFDNINTHIETLAYNSLKETLQDFHLIFSNARIYNTEGSVVYEDSLELEKVVTKKYCEIMGDNSQLDFTEFDEQYGTRPLVLPPVVTSSVAESFTDEADSSMTEASV
notes: Snf2, catalytic subunit of SWI/SNF, S. cerevisiae; also called WT; SNF2-2FLAG; source: S. cerevisiae, SNF2-2FLAG in a Δsnf2 strain; not shown: FLAG x2, C-terminal, kept
With B1, the binding result was “binds”.
